Columns and labels:
Experiment in all cases: purified protein
Settings in all cases: 0.1 M Tris-HCl pH 8, 10 mM MgCl2, 0.22 mM NADP(H), 25 C
purified protein [1] = substrate: CC[C@](O)(C(C)=O)C(=O)O; format: biochemical, Streptomyces griseus
purified protein [2] = substrate: CC(=O)[C@](C)(O)C(=O)O; format: biochemical, Streptomyces griseus
purified protein [3] = substrate: CC[C@](O)(C(C)=O)C(=O)O; format: biochemical, Streptomyces avermitilis
purified protein [4] = substrate: CC(=O)[C@](C)(O)C(=O)O; format: biochemical, Streptomyces avermitilis
purified protein [5] = substrate: CC(=O)[C@](C)(O)C(=O)O; format: biochemical, Streptomyces viridifaciens
purified protein [6] = substrate: CC(C)(O)C(=O)C(=O)O; format: biochemical, Streptomyces viridifaciens
purified protein [7] = substrate: CC(=O)[C@](C)(O)C(=O)O; format: biochemical, Streptomyces coelicolor
purified protein [8] = substrate: CC(C)(O)C(=O)C(=O)O; format: biochemical, Streptomyces coelicolor
purified protein [9] = substrate: CC(=O)[C@](C)(O)C(=O)O; format: biochemical, Streptomyces lividans
purified protein [10] = substrate: CC(C)(O)C(=O)C(=O)O; format: biochemical, Streptomyces lividans
purified protein [11] = substrate: CC(=O)[C@](C)(O)C(=O)O; format: biochemical, Streptomyces ambofaciens
purified protein [12] = substrate: CC(C)(O)C(=O)C(=O)O; format: biochemical, Streptomyces ambofaciens
purified protein [13] = substrate: CC(=O)[C@](C)(O)C(=O)O; format: biochemical, Streptomyces pristinaespiralis
purified protein [14] = substrate: CC(C)(O)C(=O)C(=O)O; format: biochemical, Streptomyces pristinaespiralis
purified protein [15] = substrate: CC(C)(O)C(=O)C(=O)O; format: biochemical, Corynebacterium glutamicum
purified protein [16] = substrate: CC(C)(O)C(=O)C(=O)O; format: biochemical, Escherichia coli

B1: Sgr (Streptomyces griseus subsp. griseus NBRC 13350) (protein)
chain: MAELFYDDDADLSIIQGRKVAVLGYGSQGHAHALSLRDSGVDVRVGLHEGSKSKAKAEEQGLRVVTPSEAAAEADVIMILVPDPIQAQVYEESVKDNLKDGDALFFGHGLNIRFGFIKPPAGVDVCMVAPKGPGHLVRRQYEEGRGVPCIVAVEQDASGKGLELALSYAKGIGGTRAGVIKTTFTEETETDLFGEQAVLCGGTAALVKAGFETLTEAGYQPEIAYFECLHELKLIVDLMYEGGLEKMRWSISETAEWGDYVTGPRIITDATKAEMKKVLAEIQDGTFAKNWMAEYHNGLPKYNEYKKADSDHLLETTGRELRKLMSWVNDEEA
notes: pET28a, expressed in E. coli BL21 Star (DE3), Ni-NTA purified (His-tagged)
Km (purified protein [1]): 2500 ± 300 µM | kcat (purified protein [1]): 0.44 ± 0.03 s⁻¹ | Km (purified protein [2]): 1200 ± 700 µM | kcat (purified protein [2]): 0.42 ± 0.04 s⁻¹

B2: Sav (Streptomyces avermitilis MA-4680 = NBRC 14893) (protein)
chain: MAELFYDADADLSIIQGRKVAVIGYGSQGHAHALSLRDSGVDVRVGLHEGSKSKAKAEEQGLRVVTPSEAAAEADVIMILVPDPIQAQVYEESIKDNLKDGDALFFGHGLNIRFGFIKPPAGVDVCMVAPKGPGHLVRRQYEEGRGVPCIAAVEQDATGNGFALALSYAKGIGGTRAGVIKTTFTEETETDLFGEQAVLCGGTAALVKAGFETLTEAGYQPEIAYFECLHELKLIVDLMYEGGLEKMRWSISETAEWGDYVTGPRIITDATKAEMKKVLAEIQDGTFAQAWMDEYHGGLKKYNEYKTQDENHLLETTGKELRKLMSWVNDEEA
notes: as for B1
Km (purified protein [3]): 2600 ± 300 µM | kcat (purified protein [3]): 0.4 ± 0.04 s⁻¹ | Km (purified protein [4]): 800 ± 90 µM | kcat (purified protein [4]): 0.24 ± 0.2 s⁻¹

B3: Svi2 (Streptomyces viridifaciens) (protein)
chain: MAELFYDADADLSIIQGRKVAVIGYGSQGHAHALSLRDSGVDVRVGLHEGSKSKAKAEEQGLRVVTPAEAAAEADVIMILVPDPIQAQVYEESVKDNLKDGDALFFGHGFNIRFGFIKPPAGVDVCMVAPKGPGHLVRRQYEEGRGVPCIAAVEQDASGNAFALALSYAKGIGGTRAGVIKTTFTEETETDLFGEQAVLCGGTSALVKAGFETLVEAGYQPEIAYFECLHELKLIVDLMYEGGLEKMRWSVSETAEWGDYVTGPRIITDATKAEMKKVLAEIQDGTFAKNWMDEYHGGLKKYDDYKEQDSEHLLETTGKQLRKLMSWVNEETM
notes: commercially synthesized gene; pET28a, expressed in E. coli BL21 Star (DE3), Ni-NTA purified (His-tagged)
Km (purified protein [5]): 1800 ± 900 µM | kcat (purified protein [5]): 2 ± 0.07 s⁻¹ | Km (purified protein [6]): 5000 ± 4800 µM | kcat (purified protein [6]): 2.5 ± 0.3 s⁻¹

B4: Sco1 (Streptomyces coelicolor A3(2)) (protein)
chain: MAELFYDADADLSIIQGRKVAVIGYGSQGHAHALSLRDSGVDVRVGLHEGSKSKAKAEEQGLRVVPVAEAAAEADVIMILVPDPIQAEVYEKDIKDNLKDGDALFFGHGLNIRYGFIKPPAGVDVCMVAPKGPGHLVRRQYEEGRGVPCIAAVEQDATGNAFALALSYAKGIGGTRAGVIKTTFTEETETDLFGEQAVLCGGTAALVKAGFETLTEAGYQPEIAYFECLHELKLIVDLMYEGGLEKMRWSISETAEWGDYVTGPRIITDATKAEMKKVLAEIQDGTFAKNWMDEYHGGLKKYNEYKKQDSEHLLETTGKELRKLMSWVDEEA
notes: as for B1
Km (purified protein [7]): 1600 ± 200 µM | kcat (purified protein [7]): 1.1 ± 0.2 s⁻¹ | Km (purified protein [8]): 3000 ± 200 µM | kcat (purified protein [8]): 2.2 ± 0.15 s⁻¹

B5: Sco2 (Streptomyces coelicolor A3(2)) (protein)
chain: MAELFYDADADLSIIQGRKVAVIGYGSQGHAHALSLRDSGVDVRVGLHEGSKSKAKAEEQGLRVVPVAEAAAEADVIMILVPDPIQAEVYEKDIKDNLKDGDALFFGHGLNIRYGFVKPPAGVDVCMVAPKGPGHLVRRQYEEGRGVPCLVAVEQDATGNAFALALSYAKGIGGTRAGVIRTTFTEETETDLFGEQAVLAGGVTALVKAGFETLTEAGYQPEIAYFECLHELKLIVDLMYEGGLEKMRWSISETAEWGDYVTGPRIITDVTKAEMRKVLAEIQDGTFAKNWMDEYHGGLKKYNEYKKQDSEHLLETTGKELRKLMSWVDEEA
notes: as for B1
Km (purified protein [7]): 12000 ± 800 µM | kcat (purified protein [7]): 0.24 ± 0.01 s⁻¹ | Km (purified protein [8]): 10000 ± 110 µM | kcat (purified protein [8]): 0.3 ± 0.04 s⁻¹

B6: Sli1 (Streptomyces lividans TK24) (protein)
chain: MAELFYDADADLSIIQGRKVAVIGYGSQGHAHALSLRDSGVDVRVGLHEGSKSKAKAEEQGLRVVPVAEAAAEADVIMILVPDPIQAEVYEKDIKDNLKDGDALFFGHGLNIRYGFIKPPAGVDVCMVAPKGPGHLVRRQYEEGRGVPCIAAVEQDATGNAFALALSYAKGIGGTRAGVIKTTFTEETETDLFGEQAVLCGGTAALVKAGFETLTEAGYQPEIAYFECLHELKLIVDLMYEGGLEKMRWSISETAEWGDYVTGPRIITDATKAEMKKVLAEIQDGTFAKNWMDEYHGGLKKYNEYKKQDSEHLLETTGKELRKLMSWVDEEA
notes: as for B1
Km (purified protein [9]): 1200 ± 70 µM | kcat (purified protein [9]): 0.7 ± 0.59 s⁻¹ | Km (purified protein [10]): 4000 ± 500 µM | kcat (purified protein [10]): 2.8 ± 0.3 s⁻¹

B7: Sam (Streptomyces ambofaciens) (protein)
chain: MAELFYDADADLSIIQGRKVAVIGYGSQGHAHALSLRDSGVDVRVGLHEGSKSKAKAEEQGLRVVSPSEAAAEADVIMILVPDPIQAQVYEEHIKDNLKDGDALFFGHGLNIRFGFIKPPAGVDVCMVAPKGPGHLVRRQYEEGRGVPCIAAVEQDASGNAFALALSYAKGIGGTRAGVIKTTFTEETETDLFGEQAVLCGGTAALVKAGFETLTEAGYQPEIAYFECLHELKLIVDLMYEGGLEKMRWSISETAEWGDYVTGPRIITDATKAEMKKVLAEIQDGTFAKNWMDEYHGGLKKYNEYKQQDSEHLLETTGKQLRKLMSWVDEEA
notes: as for B1
Km (purified protein [11]): 2000 ± 150 µM | kcat (purified protein [11]): 0.63 ± 0.5 s⁻¹ | Km (purified protein [12]): 4000 ± 300 µM | kcat (purified protein [12]): 0.8 ± 0.1 s⁻¹

B8: Spr (Streptomyces pristinaespiralis ATCC 25486) (protein)
chain: MAELFYDDDADLSIIQNRKVAVIGYGSQGHAHALSLRDSGVDVRVGLHEGSKSKAKAEEQGLRVVTPAEAAAEADVIMILIPDPIQAQVYEESVKGNLKDGDALFFAHGFNVRFGFIKAPAGVDVALVAPKGPGHLVRRQYEEGRGVPAIAAVEQDATGNAFALALSYAKAIGGTRAGVIKTTFTEETETDLFGEQAVLCGGASALVKAGFETLTEAGYQPEIAYFECLHELKLIVDLMYEGGLEKMRWSVSETAEWGDYITGPRIITDQTKAEMKKVLAEIQDGTFAKNWMDEYHGGLKKYDEYKTQDSEHLLETTGKELRKLMSWVDNDEA
notes: as for B1
Km (purified protein [13]): 9000 ± 700 µM | kcat (purified protein [13]): 3.6 ± 0.3 s⁻¹ | Km (purified protein [14]): 8600 ± 900 µM | kcat (purified protein [14]): 5.2 ± 0.6 s⁻¹

B9: Cgl (Corynebacterium glutamicum ATCC 13032) (protein)
chain: MAIELLYDADADLSLIQGRKVAIVGYGSQGHAHSQNLRDSGVEVVIGLREGSKSAEKAKEAGFEVKTTAEAAAWADVIMLLAPDTSQAEIFTNDIEPNLNAGDALLFGHGLNIHFDLIKPADDIIVGMVAPKGPGHLVRRQFVDGKGVPCLIAVDQDPTGTAQALTLSYAAAIGGARAGVIPTTFEAETVTDLFGEQAVLCGGTEELVKVGFEVLTEAGYEPEMAYFEVLHELKLIVDLMFEGGISNMNYSVSDTAEFGGYLSGPRVIDADTKSRMKDILTDIQDGTFTKRLIANVENGNTELEGLRASYNNHPIEETGAKLRDLMSWVKVDARAETA
notes: as for B1
Km (purified protein [15]): 2300 ± 250 µM | kcat (purified protein [15]): 0.9 ± 0.08 s⁻¹

B10: Eco (Escherichia coli K-12) (protein)
chain: ANYFNTLNLRQQLAQLGKCRFMGRDEFADGASYLQGKKVVIVGCGAQGLNQGLNMRDSGLDISYALRKEAIAEKRASWRKATENGFKVGTYEELIPQADLVINLTPDKQHSDVVRTVQPLMKDGAALGYSHGFNIVEVGEQIRKDITVVMVAPKCPGTEVREEYKRGFGVPTLIAVHPENDPKGEGMAIAKAWAAATGGHRAGVLESSFVAEVKSDLMGEQTILCGMLQAGSLLCFDKLVEEGTDPAYAEKLIQFGWETITEALKQGGITLMMDRLSNPAKLRAYALSEQLKEIMAPLFQKHMDDIISGEFSSGMMADWANDDKKLLTWREETGKTAFETAPQYEGKIGEQEYFDKGVLMIAMVKAGVELAFETMVDSGIIEESAYYESLHELPLIANTIARKRLYEMNVVISDTAEYGNYLFSYACVPLLKPFMAELQPGDLGKAIPEGAVDNGQLRDVNEAIRSHAIEQVGKKLRGYMTDMKRIAVAG
notes: as for B1
Km (purified protein [16]): 260 ± 30 µM | kcat (purified protein [16]): 3.1 ± 0.25 s⁻¹

From publication PMC4353338, “Molecular annotation of ketol-acid reductoisomerases from Streptomyces reveals a novel amino acid biosynthesis interlock mediated by enzyme promiscuity” (Microbial Biotechnology, 2014)
